# Measured values reported in patent EP1874358B1.
# Experiments:
# CEA = CEA (UniProt P06731); assay: SE-HPLC of 125I-TF2 mixed with a 20-fold molar excess of CEA
# [1] = target: fusion protein containing the A3B3 domain of CEA (UniProt P06731); assay: competitive ELISA against HRP-conjugated hMN-14 IgG (1 nM) on A3B3 fusion protein
substance,measurement,setting,value
TF2 (bispecific antibody),percent shifted to a high molecular weight species,CEA,95%
same,fold avidity relative to TF1,[1],2 fold
